This series deals with Zif268::FokI zinc finger nuclease (synthetic). Description: cell_activity. As to conditions: N. tabacum leaf, pLSLZ.D + p35SREP, 7 dpi; 6 of 8 sequenced resistant clones mutated.

“Zif268 target site in gus::nptII reporter”: the activity (% of reporter genes with NHEJ mutations) amounted to 10.

Values taken from US20210054388.
